# Test results published in paper PMC5008011, “The sclerostin-neutralizing antibody AbD09097 recognizes an epitope adjacent to sclerostin's binding site for the Wnt co-receptor LRP6” (Open Biology, 2016).
# B1: Fab AbD09097 (Fab, V domains shown)
# VH: QVQLVESGGGLVQPGGSLRLSCAASGFTFTNYYMHWVRQAPGKGLEWVSTIAYDGSSTYYADSVKGRFTISRDNSKNTLYLQMNSLRAEDTAVYYCARWFTDDIWGQGTLVTVSS
# VL: not shown
# notes: also called ancestor Fab; source: E. coli, periplasmic expression, purified by the hexahistidine-tag
# B2: Fab AbD12682 (Fab, V domains shown)
# VH: QVQLVESGGGLVQPGGSLRLSCAASGFTFTNYYMHWVRQAPGKGLEWVSTIAYDGSSTYYADSVKGRFTISRDNSKNTLYLQMNSLRAEDTAVYYCARWFTDDIWGQGTLVTVSS
# VL: not shown
# notes: as the light chain of Dm1 up to the Cys before CDR3L; as the light chain of Dm1 from Thr97 (Kabat) to the end; heavy chain extension as in Dm1; source: E. coli, periplasmic expression, purified by the hexahistidine-tag
# B3: Fab AbD12683 (Fab, V domains shown)
# VH: QVQLVESGGGLVQPGGSLRLSCAASGFTFTNYYMHWVRQAPGKGLEWVSTIAYDGSSTYYADSVKGRFTISRDNSKNTLYLQMNSLRAEDTAVYYCARWFTDDIWGQGTLVTVSS
# VL: not shown
# notes: as for B2
# B4: Fab AbD09097 (Fab, V domains shown)
# VH: QVQLVESGGGLVQPGGSLRLSCAASGFTFTNYYMHWVRQAPGKGLEWVSTIAYDGSSTYYADSVKGRFTISRDNSKNTLYLQMNSLRAEDTAVYYCARWFTDDIWGQGTLVTVSS
# VL: not shown
# notes: format Fab-Thr-MH with a thrombin site (-FLVPRGS-) between CH1 and the tags; kappa light chain; From the HuCAL GOLD phage library, panned on murine sclerostin; also called ancestor Fab AbD09097; HCA230Z (as full-length IgG, AbD Serotec); source: E. coli, periplasmic expression, purified via hexahistidine-tag
# B5: Fab AbD12682 (Fab, V domains shown)
# VH: QVQLVESGGGLVQPGGSLRLSCAASGFTFTNYYMHWVRQAPGKGLEWVSTIAYDGSSTYYADSVKGRFTISRDNSKNTLYLQMNSLRAEDTAVYYCARWFTDDIWGQGTLVTVSS
# VL: not shown
# notes: consensus motif -QQDXXFPI- (X: His, Glu, Val or Ser); source: E. coli, periplasmic expression, purified via hexahistidine-tag
# B6: Fab AbD12683 (Fab, V domains shown)
# VH: QVQLVESGGGLVQPGGSLRLSCAASGFTFTNYYMHWVRQAPGKGLEWVSTIAYDGSSTYYADSVKGRFTISRDNSKNTLYLQMNSLRAEDTAVYYCARWFTDDIWGQGTLVTVSS
# VL: not shown
# notes: carries a tyrosine at position 3 of CDR3L; source: E. coli, periplasmic expression, purified via hexahistidine-tag
# B7: Fab AbD12681 (Fab, V domains shown)
# VH: QVQLVESGGGLVQPGGSLRLSCAASGFTFTNYYMHWVRQAPGKGLEWVSTIAYDGSSTYYADSVKGRFTISRDNSKNTLYLQMNSLRAEDTAVYYCARWFTDDIWGQGTLVTVSS
# VL: DIVLTQSPATLSLSPGERATLSCRASQSISSNELAWYQQKPGQAPRLLIYDTSNRATGVPARFSGSGSGTDFTLTISSLEPEDFAVYYCQQDHEFPITFGQGTKVEIK
# notes: as for B5
# B8: Fab AbD12684 (Fab, V domains shown)
# VH: QVQLVESGGGLVQPGGSLRLSCAASGFTFTNYYMHWVRQAPGKGLEWVSTIAYDGSSTYYADSVKGRFTISRDNSKNTLYLQMNSLRAEDTAVYYCARWFTDDIWGQGTLVTVSS
# VL: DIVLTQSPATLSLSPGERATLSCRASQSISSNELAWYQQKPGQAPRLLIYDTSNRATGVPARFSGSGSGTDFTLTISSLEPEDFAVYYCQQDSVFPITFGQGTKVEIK
# notes: as for B5
# B9: Fab AbD12685 (Fab, V domains shown)
# VH: QVQLVESGGGLVQPGGSLRLSCAASGFTFTNYYMHWVRQAPGKGLEWVSTIAYDGSSTYYADSVKGRFTISRDNSKNTLYLQMNSLRAEDTAVYYCARWFTDDIWGQGTLVTVSS
# VL: DIVLTQSPATLSLSPGERATLSCRASQSISSNELAWYQQKPGQAPRLLIYDTSNRATGVPARFSGSGSGTDFTLTISSLEPEDFAVYYCQQDYTFPLTFGQGTKVEIK
# notes: source: E. coli, periplasmic expression, purified via hexahistidine-tag
# B10: Fab AbD12687 (Fab, V domains shown)
# VH: QVQLVESGGGLVQPGGSLRLSCAASGFTFTNYYMHWVRQAPGKGLEWVSTIAYDGSSTYYADSVKGRFTISRDNSKNTLYLQMNSLRAEDTAVYYCARWFTDDIWGQGTLVTVSS
# VL: DIVLTQSPATLSLSPGERATLSCRASQSISSNELAWYQQKPGQAPRLLIYDTSNRATGVPARFSGSGSGTDFTLTISSLEPEDFAVYYCQQDVVMPITFGQGTKVEIK
# notes: as for B9
# How the values were obtained:
# [1] = target: T1, 14mer peptide NAIGRGKWWRPSGP, equivalent to residues Asn92 to Pro105 of sclerostin loop 2 (Homo sapiens); assay: peptide or protein array; truncation array: all truncated variants (3 to 14mer) of two 14mer loop 2 peptides synthesized on solid support; Fab added, modified ELISA with goat anti-human peroxidase coupled secondary antibody; conditions: both partners purified
# T1 construct: loop 2 of sclerostin; also called second peptide; source: synthetic peptide, synthesized on solid support (array)
# T1 chain: NAIGRGKWWRPSGP
# [2] = target: T2, 14mer peptide PARLLPNAIGRGKW, equivalent to residues Pro86 to Trp99 of sclerostin loop 2 (Homo sapiens); assay: as above; conditions: both partners purified
# T2 construct: loop 2 of sclerostin; also called first peptide; base peptide; source: synthetic peptide, synthesized on solid support (array)
# T2 chain: PARLLPNAIGRGKW
# [3] = target: T3, human sclerostin (Homo sapiens, UniProt Q9BQB4); assay: cell-based or functional assay
# [4] = target: T4, murine sclerostin (Mus musculus, UniProt Q99P68); assay: cell-based or functional assay
# [5] = target: T5, 14mer peptide PARLLPNAIGRGKW (Homo sapiens); assay: peptide or protein array; peptides synthesised on solid support (overlapping, replacement and truncation libraries); Fab detected by a modified ELISA with goat anti-human peroxidase-coupled secondary antibody; conditions: both partners purified
# T5 construct: stretch of loop 2 of sclerostin; also called base peptide; loop 2 mimicking peptide; source: synthetic peptide, on solid support (peptide array)
# T5 chain: PARLLPNAIGRGKW
# [6] = target: T3, human sclerostin; assay: ELISA; plates coated with 5 µg/ml protein in PBS; Fab at 2 µg/ml, 1 h at room temperature; detection with anti-human Fab-alkaline phosphatase and AttoPhos; signal/noise over the background of BSA, N1-CD33-His6 and GST; conditions: both partners purified
# [7] = target: T4, murine sclerostin; assay: as above; conditions: both partners purified
# [8] = target: T3, human sclerostin; assay: SPR; ProteOn, 25°C, HBS150T (10 mM HEPES, 150 mM NaCl, pH 7.5, 0.005% Tween 20); sclerostin proteins or variants amine-coupled to about 600 RU on a GLC chip; Fabs as analytes at 100, 75, 50, 25, 12.5 and 6.25 nM (one-shot kinetics); 1:1 Langmuir model; conditions: both partners purified
# [9] = target: T4, murine sclerostin; assay: as above; conditions: both partners purified
# [10] = target: T3, human sclerostin; assay: cell-based or functional assay; remark: listed apart in the source
# [11] = target: T4, murine sclerostin; assay: cell-based or functional assay; remark: listed apart in the source
# [12] = target: T3, human sclerostin; assay: SPR; ProteOn, 25°C, HBS150T (10 mM HEPES, 150 mM NaCl, pH 7.5, 0.005% Tween 20); sclerostin proteins or variants amine-coupled to about 600 RU on a GLC chip; Fabs as analytes at 100, 75, 50, 25, 12.5 and 6.25 nM (one-shot kinetics); 1:1 Langmuir model; conditions: both partners purified; remark: listed apart in the source
# [13] = target: T4, murine sclerostin; assay: as above; conditions: both partners purified; remark: listed apart in the source
# T4 sequence (Q99P68 24-211): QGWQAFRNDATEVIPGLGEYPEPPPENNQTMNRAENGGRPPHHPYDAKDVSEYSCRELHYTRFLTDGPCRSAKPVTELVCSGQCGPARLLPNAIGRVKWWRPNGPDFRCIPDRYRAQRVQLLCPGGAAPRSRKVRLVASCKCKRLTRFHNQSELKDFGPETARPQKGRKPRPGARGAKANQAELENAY
# T3 sequence (Q9BQB4 24-213): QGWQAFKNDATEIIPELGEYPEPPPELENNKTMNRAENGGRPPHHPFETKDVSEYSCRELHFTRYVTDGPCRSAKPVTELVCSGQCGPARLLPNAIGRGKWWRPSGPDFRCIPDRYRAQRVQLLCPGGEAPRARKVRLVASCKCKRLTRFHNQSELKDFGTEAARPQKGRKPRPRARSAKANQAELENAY
binder,measurement,setting,value
B1,binding result,[1],binds
same,binding result,[2],binds
B2,binding result,[2],binds
B3,binding result,[2],binds
B4,Wnt1 reporter gene assay with 20 nM human sclerostin and 0-670 nM AbD09097: EC50 of the rescue of Wnt1 activity,[3],197 nM
same,Wnt1 reporter gene assay with 20 nM murine sclerostin and 0-670 nM AbD09097: EC50 of the rescue of Wnt1 activity,[4],46 nM
same,binding result,[5],binds
same,ELISA signal/noise ratio (fold background),[6],34 fold background
same,ELISA signal/noise ratio (fold background),[7],39 fold background
same,Kd,[8],260 nM
same,koff,[8],0.0016 s⁻¹
same,kon,[8],6600 M⁻¹ s⁻¹
same,Kd,[9],46 nM
same,koff,[9],0.00018 s⁻¹
same,kon,[9],4400 M⁻¹ s⁻¹
same,"Wnt1 reporter gene assay (HEK293TSA M50, luciferase): fold change of the IC50 of human sclerostin for inhibition of Wnt1 activity with 500 nM Fab; the blocked pair is sclerostin and LRP5/6",[10],6.4 fold
same,"Wnt1 reporter gene assay (HEK293TSA M50, luciferase): fold change of the IC50 of murine sclerostin for inhibition of Wnt1 activity with 500 nM Fab; the blocked pair is sclerostin and LRP5/6",[11],12.6 fold
B5,Kd,[12],23 nM
same,koff,[12],0.00066 s⁻¹
same,kon,[12],32000 M⁻¹ s⁻¹
same,Kd,[13],13 nM
same,koff,[13],0.00025 s⁻¹
same,kon,[13],22000 M⁻¹ s⁻¹
same,binding result,[5],binds
same,ELISA signal/noise ratio (fold background),[6],57 fold background
same,ELISA signal/noise ratio (fold background),[7],44 fold background
B6,Kd,[12],53 nM
same,koff,[12],0.00033 s⁻¹
same,kon,[12],6400 M⁻¹ s⁻¹
same,Kd,[13],< 1 nM
same,koff,[13],< 1e-06 s⁻¹
same,kon,[13],3400 M⁻¹ s⁻¹
same,binding result,[5],binds
same,ELISA signal/noise ratio (fold background),[6],64 fold background
same,ELISA signal/noise ratio (fold background),[7],28 fold background
B7,Kd,[12],66 nM
same,koff,[12],0.0016 s⁻¹
same,kon,[12],27400 M⁻¹ s⁻¹
same,Kd,[13],35 nM
same,koff,[13],0.00054 s⁻¹
same,kon,[13],17000 M⁻¹ s⁻¹
same,ELISA signal/noise ratio (fold background),[6],44 fold background
same,ELISA signal/noise ratio (fold background),[7],26 fold background
B8,Kd,[12],32 nM
same,koff,[12],0.00073 s⁻¹
same,kon,[12],25300 M⁻¹ s⁻¹
same,Kd,[13],15 nM
same,koff,[13],0.00025 s⁻¹
same,kon,[13],18400 M⁻¹ s⁻¹
same,ELISA signal/noise ratio (fold background),[6],73 fold background
same,ELISA signal/noise ratio (fold background),[7],53 fold background
B9,Kd,[12],56 nM
same,koff,[12],0.001 s⁻¹
same,kon,[12],20400 M⁻¹ s⁻¹
same,Kd,[13],145 nM
same,koff,[13],0.00029 s⁻¹
same,kon,[13],13000 M⁻¹ s⁻¹
same,ELISA signal/noise ratio (fold background),[6],61 fold background
same,ELISA signal/noise ratio (fold background),[7],46 fold background
B10,Kd,[12],228 nM
same,koff,[12],0.0047 s⁻¹
same,kon,[12],23300 M⁻¹ s⁻¹
same,Kd,[13],120 nM
same,koff,[13],0.0017 s⁻¹
same,kon,[13],16000 M⁻¹ s⁻¹
same,ELISA signal/noise ratio (fold background),[6],57 fold background
same,ELISA signal/noise ratio (fold background),[7],50 fold background
